# Reference: paper PMC3642234 (Biochimica et biophysica acta, 2013)
# T1: recombinant human pancreatic triglyceride lipase (human, UniProt P16233 17-465)
# T1 sequence: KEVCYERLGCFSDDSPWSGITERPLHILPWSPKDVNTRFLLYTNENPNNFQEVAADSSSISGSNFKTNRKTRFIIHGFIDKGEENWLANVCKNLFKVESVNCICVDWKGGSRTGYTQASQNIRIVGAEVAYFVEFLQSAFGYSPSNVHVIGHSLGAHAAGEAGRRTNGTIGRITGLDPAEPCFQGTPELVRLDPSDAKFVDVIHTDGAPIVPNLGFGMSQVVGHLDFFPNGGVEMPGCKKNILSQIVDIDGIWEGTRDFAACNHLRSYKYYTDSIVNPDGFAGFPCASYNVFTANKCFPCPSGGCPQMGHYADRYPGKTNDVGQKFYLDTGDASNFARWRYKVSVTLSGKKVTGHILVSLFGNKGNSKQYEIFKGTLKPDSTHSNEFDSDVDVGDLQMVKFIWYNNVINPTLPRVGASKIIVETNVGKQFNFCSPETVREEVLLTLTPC
# B1: wild-type human colipase (natural protein, UniProt P04118 18-112, looked up)
# chain: APGPRGIIINLENGELCMNSAQCKSNCCQHSSALGLARCTSMASENSECSVKTLYGIYYKCPCERGLTCEGDKTIVGSITNTNFGICHDAGRSKQ
# What was measured:
# [1] = molecular target: recombinant human pancreatic triglyceride lipase (human) (UniProt P16233); assay: co-sedimentation
# [2] = molecular target: T1, recombinant human pancreatic …; assay: co-sedimentation
molecule,measurement,setting,value
I79A human colipase (natural protein),apparent Kd (colipase at half-maximal absorption of PTL to tributyrin emulsion),[1],36 nM
L16A human colipase (natural protein),apparent Kd (colipase at half-maximal absorption of PTL to tributyrin emulsion),[1],25.7 nM
Y55A human colipase (natural protein),apparent Kd (colipase at half-maximal absorption of PTL to tributyrin emulsion),[1],78.6 nM
F84A human colipase (natural protein),apparent Kd (colipase at half-maximal absorption of PTL to tributyrin emulsion),[1],108 nM
B1,apparent Kd (colipase at half-maximal absorption of PTL to tributyrin emulsion),[2],22.8 nM
